For this series, the target named is CmHRE2-like (CmHRE2L) (UniProt A0AA96PUJ9 1-225). The experiment in a line: EMSA; LightShift Chemiluminescent EMSA Kit (Thermo Fisher); buffer, salt, pH and temperature not stated. The conditions noted are these: protein: recombinant; tags: GST (pGEX4T-1, N-terminal); label: biotin.
CmHRE2-like (CmHRE2L), sequence (A0AA96PUJ9 entry or part of it): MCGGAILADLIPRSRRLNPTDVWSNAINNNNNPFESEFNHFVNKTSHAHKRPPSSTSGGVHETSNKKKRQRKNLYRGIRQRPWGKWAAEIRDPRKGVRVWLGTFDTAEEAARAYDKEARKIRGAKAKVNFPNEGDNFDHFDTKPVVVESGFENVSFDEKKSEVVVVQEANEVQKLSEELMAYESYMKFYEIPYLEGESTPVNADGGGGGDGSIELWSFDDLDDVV

B1: Biotin-mP, probe with mutated cis-element 3 (dsDNA)
DNA 1: ACCTTCATATGCATGAAAAAAAAATTTTCCACTCAACA
DNA 2: TGTTGAGTGGAAAATTTTTTTTTCATGCATATGAAGGT
Consider B1, for which the binding result is listed as “no binding”.

The record behind these values is article PMC11874658, “CmHRE2L-CmACS6 transcriptional cascade negatively regulates waterlogging tolerance in Chrysanthemum”.
